# Results published in patent US20260008817A1, “CYCLIC PEPTIDE OR SALT THEREOF, AND USES THEREOF” (FUJIFILM Corporation, priority 2023, published 2026).
# Legend:
# [1] = molecular target: T1, FGFR3 Protein, Human, Recombinant (ECD, His Tag) (Homo sapiens, UniProt P22607); test: SPR FGFR versatility, FGFR3 on immobilized cyclic peptide; format: binding; details: 1 μmol/L FGFR, 25° C.
# T1 construct: FGFR3 Protein, Human, Recombinant (ECD, His Tag); His tag; purchased Sino Biological 16044-H08H
# T1 sequence (P22607 23-375 limits assumed): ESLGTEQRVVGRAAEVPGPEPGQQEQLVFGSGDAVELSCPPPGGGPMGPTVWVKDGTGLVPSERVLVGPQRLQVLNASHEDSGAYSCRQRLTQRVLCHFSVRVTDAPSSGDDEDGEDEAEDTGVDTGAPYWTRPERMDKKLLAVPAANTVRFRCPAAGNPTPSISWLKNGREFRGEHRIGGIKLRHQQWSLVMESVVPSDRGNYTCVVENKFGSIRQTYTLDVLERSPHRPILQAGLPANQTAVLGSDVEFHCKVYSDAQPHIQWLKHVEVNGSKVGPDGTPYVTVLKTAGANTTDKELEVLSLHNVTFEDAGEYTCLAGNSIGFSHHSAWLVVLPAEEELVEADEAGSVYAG
# Description: The binding of the cyclic peptide to various types of FGFRs was evaluated using a surface plasmon resonance (SPR) method.
# (§1) The binding affinity of the chemically synthesized cyclic peptide to FGFR was evaluated by the following procedure.
# A CM5 sensor chip (Cytiva, 29149603) was set in Biacore-T200 (manufactured by Cytiva) which is a surface plasmon resonance device, and an HBS-EP buffer (Cytiva, BR100826) was added as a running buffer at a flow rate of 10 μL/min to equilibrate the flow channel. Next, 70 μL of a mixed aqueous solution of 0.2 mol/L 1-(3-dimethylaminopropyl)-3-ethylcarbodiimide (EDC) and 0.05 mol/L N-hydroxysuccinimide (NHS) was added to activate the sensor chip. Then, a cyclic peptide prepared to 2 mg/mL in HBS-EP buffer was added thereto to perform immobilization at about 200 RU. […]
# After various FGFRs (FGFR1 Protein, Human, Recombinant (His Tag) (Sino Biological, 10616-H08H), FGFR3 Protein, Human, Recombinant (ECD, His Tag) (Sino Biological, 16044-H08H), FGFR4 Protein, Human, Recombinant (His Tag) (Sino Biological, 10538-H08H)) diluted with HBS-EP to 1 μmol/L at 25° C. was added to each flow channel of the cyclic peptide-immobilized sensor chip prepared above, for 10 minutes, HBS-EP was allowed to flow as a running buffer for 30 minutes, and the binding of various FGFRs to the cyclic peptide was measured. […]
# [2] = molecular target: T2, Recombinant Human FGFR1 alpha (IIIc) Fc Chimera Protein (Homo sapiens, UniProt P11362); test: SPR binding affinity of chemically synthesized cyclic peptide to immobilized FGFR; details: SPR binding amount at 10 nmol/L cyclic peptide, 25° C.; chemically synthesized product
# T2 construct: purchased R&D systems 658-FR-050
# Description: The binding affinity of the cyclic peptide to FGFR was evaluated using a surface plasmon resonance (SPR) method.
# as §1
# A CM5 sensor chip (Cytiva, 29149603) was set in Biacore-T200 (manufactured by Cytiva) which is a surface plasmon resonance device, and an HBS-EP buffer (Cytiva, BR100826) was added as a running buffer at a flow rate of 10 μL/min to equilibrate the flow channel. Next, 70 μL of a mixed aqueous solution of 0.2 mol/L 1-(3-dimethylaminopropyl)-3-ethylcarbodiimide (EDC) and 0.05 mol/L N-hydroxysuccinimide (NHS) was added to activate the sensor chip. Then, Recombinant Human FGFR1 alpha (IIIc) Fc Chimera Protein CF (R&D systems, 658-FR-050) prepared at 50 nmol/L in an Acetate 4.5 buffer (Cytiva, BR100350) was added thereto to perform immobilization at about 5000 RU. Thereafter, the blocking treatment was performed with an ethanolamine solution. In addition, in another flow channel of the same sensor chip, blocking treatment was performed immediately after activation without immobilizing FGFR.
# A cyclic peptide diluted to 10 nmol/L using HBS-EP was added to each flow channel of the FGFR-immobilized sensor chip produced above at 25° C. for 10 minutes, then HBS-EP was allowed to flow as a running buffer for 30 minutes, and the binding of the cyclic peptide to FGFR was measured. Thereafter, a regeneration treatment of removing the bound cyclic peptide was performed by repeating the flow of a regeneration liquid in which sodium chloride powder was dissolved in Glysine 1.5 (Cytiva, BR100354) to a final concentration of 0.15 mol/L for 1 minute in each flow channel twice. The binding amount of the cyclic peptide was evaluated from the difference between the measured value of Biacore-T200 in the flow channel in which FGFR was immobilized and the measured value of Biacore-T200 in the flow channel in which FGFR was not immobilised, in a case where a 10 nmol/L cyclic peptide was allowed to flow.
# The binding amount of the cyclic peptide evaluated above was normalized to the binding amount of the cyclic peptide molecules per one molecule of FGFR using the molecular weights of the cyclic peptide and FGFR, and the binding affinity to FGFR was evaluated according to the following evaluation criteria. The evaluation result preferably satisfies the evaluation criteria A, B, or C.
# • A: The binding amount is 0.7 molecules of the cyclic peptide/one molecule of FGFR or more. • B: The binding amount is 0.5 molecules of the cyclic peptide/one molecule of FGFR or more and less than 0.7 molecules of cyclic peptide/one molecule of FGFR. • C: The binding amount is 0.1 molecules of cyclic peptide/one molecule of FGFR or more and less than 0.5 molecules of cyclic peptide/one molecule of FGFR. • D: The binding amount is less than 0.1 molecules of the cyclic peptide/one molecule of FGFR.
# T2 sequence (P11362 with tags, fused parts or gaps limits assumed): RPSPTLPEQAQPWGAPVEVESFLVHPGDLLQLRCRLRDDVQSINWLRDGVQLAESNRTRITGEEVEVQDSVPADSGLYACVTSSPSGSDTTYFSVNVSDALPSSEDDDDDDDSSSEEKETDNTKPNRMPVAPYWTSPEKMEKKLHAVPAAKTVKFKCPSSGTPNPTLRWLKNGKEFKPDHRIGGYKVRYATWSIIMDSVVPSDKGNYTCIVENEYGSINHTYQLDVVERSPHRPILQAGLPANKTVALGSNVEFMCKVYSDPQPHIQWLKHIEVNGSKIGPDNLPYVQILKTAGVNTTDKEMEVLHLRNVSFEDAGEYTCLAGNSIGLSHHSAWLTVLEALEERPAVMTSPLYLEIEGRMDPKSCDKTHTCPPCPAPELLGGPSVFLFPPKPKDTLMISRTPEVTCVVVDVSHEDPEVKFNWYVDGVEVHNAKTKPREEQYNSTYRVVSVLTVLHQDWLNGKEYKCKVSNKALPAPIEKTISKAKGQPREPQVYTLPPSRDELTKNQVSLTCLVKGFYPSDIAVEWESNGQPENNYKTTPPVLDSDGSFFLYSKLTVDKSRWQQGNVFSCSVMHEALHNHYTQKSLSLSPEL
substance,measurement,setting,value
335 (ACVWTFDRHAQEISQALHKVKKK; not fully specified; Description of Artificial Sequence: Cyclic peptide) [compound 335],Evaluation result of binding affinity to FGFR3,[1],B (The binding amount is 0.01 molecules of FGFR/one molecule of the cyclic peptide or more and less than 0.05 molecules of FGFR/one molecule of the cyclic peptide.)
same,Evaluation result of binding affinity to FGFR,[2],A (The binding amount is 0.7 molecules of the cyclic peptide/one molecule of FGFR or more.)
